Data as given in patent CN106632674A.

Key:
[1] = target: PD-1ECD-TEV-mFc融合蛋白 (human); assay: indirect ELISA, coated PD-1 Fc fusion (mFc form assumed for 5C4), run together with 6F5 and 6F5(Re)
[2] = target: PD-1ECD-TEV-mFc融合蛋白 (human); assay: indirect ELISA, coated PD-1 Fc fusion (mFc form assumed for 5C4), run together with 6F5H1L1 and 6F5H2L2
[3] = target: PD-1ECD-TEV-hFc融合蛋白 (human); assay: competition ELISA, antibody titrated from 1.5 ug/ml against PDL-1 Fc fusion (2 ug/ml; PDL-1-mFc assumed) on coated PD-1 Fc fusion (PD-1-hFc assumed)
Chain of PD-1ECD-TEV-hFc融合蛋白 (human) (main, as listed by the source, form in doubt): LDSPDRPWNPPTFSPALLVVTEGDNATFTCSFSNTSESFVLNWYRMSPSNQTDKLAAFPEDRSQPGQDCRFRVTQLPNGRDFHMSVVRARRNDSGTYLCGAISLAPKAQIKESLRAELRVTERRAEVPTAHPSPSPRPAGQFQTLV

Chain of PD-1ECD-TEV-mFc融合蛋白 (human) (main, as listed by the source, form in doubt): as above

阳性对照抗体5C4 (antibody)
EC50 [1]: 0.199 nM
EC50 [2]: 0.233 nM
EC50 [3]: 1.46 nM
